Assay results reported in the DeepSol protein solubility set.

Assay: soluble on expression in E. coli; label from the status in PepcDB or PDB records

Soluble on expression in E. coli, soluble:
MLMEPQFLRLVSHGANVLDPLSRIEPAAVGMMAGALQKGLAETFTPEAMQDPPRVGLAGFFKQLSDPEVQKALGVLFLFLKALGKAFGHMNEERKTLEAMMAKMMPKK
MLNIDTQFVDTIGKILSDYVSHSEITRMGEVLGYPQNDQNSGFNKHKRVHNLVSDILNRTQNTDNIKLVIEYVCNPLRYINEVSIFEQLRTAINIPLSLKGLIVSDSGQIVTTTTSKTLSEAKKRFETLDSRLKELKVHPHVLKFCTQELLQENYFHAVFEASKGVFHRIRLLTGSAMDSASLIDQCFKPGEPIVIINGNKLQTLDEQSEYKGLKNLLLAIAHLYRNSKAHKLKYYNPDNLNDALTALTLMSLAHNLLDSCSNTRRLD
MLQINQMFSVQLSLGEQTWESEGSSIKKAQQAVANKALTESTLPKPVQKPPKSNVNNNPGSITPTVELNGLAMKRGEPAIYRPLDPKPFPNYRANYNFRGMYNQRYHCPVPKIFYVQLTVGNNEFFGEGKTRQAARHNAAMKALQALQNEPIPERSPQNGESGKDMDDDKDANKSEISLVFEIALKRNMPVSFEVIKESGPPHMKSFVTRVSVGEFSAEGEGNSKKLSKKRAATTVLQELKKLPPLPVVEKPKLFFKKRPKTIVKAGPEYGQGMNPISRLAQIQQAKKEKEPDYVLLSERGMPRRREFVMQVKVGNEVATGTGPNKKIAKKNAAEAMLLQLGYKASTNLQDQLEKTGENKGWSGPKPGFPEPTNNTPKGILHLSPDVYQEMEASRHKVISGTTLGYLSPKDMNQPSSSFFSISPTSNSSATIARELLMNGTSSTAEAIGLKGSSPTPPCSPVQPSKQLEYLARIQGFQAALSALKQFSEQGLDPIDGAMNIEKGSLEKQAKHLREKADNNQAPPGSIAQDCKKSNSAV
MLRISELKLPLDHTQEELADAVAGFLKAPADEVRGFTVFKRSYDARKGVMSLVYIIDVDVANEDKLFARFKGDRRVMPTPDTHYYYVAQAPESLKSRPVVVGFGPCGIFAALILAQMGFKPIVLERGKEVRQRTKDTWGLWRKSELNTESNVQYGEGGAGTFSDGKLYSQIKDPRHLGRKVLTEFVKAGAPEEILYLARPHIGTFRLVSMVENMRAEIIALGGEIRFEQRVDDLILDGDRVRGVKLADGGEVLSDHVVLALGHSARDTFQMLEKRGVYMEAKPFSVGVRIEHPQSLIDAARWGKYAGHPILGAADYKLVHHAGNGRAVYSFCMCPGGTVVAATSEEKRVVTNGMSQYSRNERNANSGFVVSISPEVDYPGGPLAGLDFQRELESKAYELGGGDYFAPAQLLGDFMAGKASTQLGSVEPSYKPGVTMTDLARILPDFCVEAMREAIPHFARQIRGYDLHDAVLTGLETRTSSPLRITRGEDFQSLNIKGLFPAGEGAGYAGGILSAGVDGIKVAEAVAKAMLGQLEHHHHHH

Soluble on expression in E. coli, not soluble:
MLLSPEQFSRLSEYAAYSRRKLKDMLSDFQQDGKFYSYLSVDGQTINIDGFRAFLIDYFGADLPSDLVDQLFLSFSKPPIKERRTSLFEDAISTVRAKFSESLSGRMAGLNIAGGSGQQTDRSQSSEPQALVCIPEDDVMGPRVANNDSQEPRIPLKPLICTLSLLEADTPENKLDVVFHVYDSDGNGFLDKSEIDGIIEQMMNVARYQQWDTIELEQVIRQMMVDIDYDNDGIVSFDEWRRGGLTNIPLLVLLGFDTEMKEDGSHVWRLRHFTKPTYCNACCSILVGWGGKQGLSCSLCKYTVHERCVRSAATNCIRTYSSRQQDKLYHHWQDANATAKCVKCKATVGVFQGKGCRWCHNYVHHRCMSALAQECDLGALVHHILPPTHIFPAFLERKTSTSLKNHNFSSHSASLLQAVSPSNDCRPLLVLVNPKSGGKQGVKILQKFEYLLNPRQVYDLSKTGPEPGLQLFSTLKNCNILVCGGDGTIGWVLESMDKMTFPHGRPPVAVLPLGTGNDLARCLRWGGGYENENLHKILEQIEKSSLIDMDRWQIKIEITENKSARRASEKGDTPPYSIINNYFSIGVDASIAHRFHVMREKFPEKFNSRMRNKLWYFELGTSETLSSSCKNLHEQIDILCDGESIDLGQDASLEGIALLNIPSIYGGSNLWGRSRKSKGRMPGLFPMKNAEKMQLQTRVQDIGDGLIELVGLESAMQMGQIKAGVRGARRLSQCSTVVIQTHKSFPMQIDGEPWMQPPCIIQITHKNQAKMLVGEFRHILELSINFFLFTAAAPRKRSSWMLLKRQSTNDDN
MLMPRQTTPPLSLPLVGGGRFDLSAETSTRWTLICFYRGLHCPICATYLKELEKRVADFAERGVACVAVSSDSEERAQAMAEKVGGGTLRFAYDLPLAEARDWGLYISTSRGKTSIGIEEPALFSEPGLFLVTPERTLYYGAVQTMPFVR
MLMSLSRRELIKKEIFDIEEYVPGRSIEEIASTYGLKPESIIKLGSNENPLGPSPKAVKALIEAAPGANIYPSADAHELREALSKYTGFPVSNIVASGPGMDGLLDGLCRIIIEKGDEVIVPIPTFSYYELPARACGAEPVFIRRNQDFSLNPEKILEAVSPRTKIIFLCSPNNPSGNLLPEADLRKIIENTDALVFVDEAYVEFADRNLAALVNEYDNVAVGRTFSKVFGLAGLRLGYGIMPEWLTKEYLRAATPFSVSLPALRAGLAALSDTEYLNKSINLAREGREYLKEKIPFKVYPSQANFVLVDVSPLKAKKVTESLLKKGIIVRPCDSFREAGDSFIRVTVGTPEQNEKVVRAFEISKSEV
MLNEFDQYLHERYLSGKARKDRWYWNNSIQRGRSTAVRENWQWKPAVAYCRYADDFVLIVKGTKAQAEAIREECRGVLEGSLKLRLNMDKTKITHVNDGFIFLGHRIIRKRSRYGEMRVVSTIPQEKARNFAASLTALLSGNYSESKVDMAEQLNRKLKGWAMFYQFVDFKAKVFSYIDRVVFWKLAHWLARKYRTGIASLMRWWCKSPKPGQSKTWVLFGKTNHGKLSGEILYRLVGQGKKLFRWRLPEGNPYLRTETRNTYTSRFTEVAMAFASI
MLNMPAEFEQFHWMVDMVQNVDMGLVVIDRDYNVQVWNGFMTHHSGLQSHEAIGRSIFDIFPEIPPEWFKLKTKPVYDLGCRSFITWRQRPYLFRCRNVRPVTQQAEFMYQNVTLNPMRTPTGKINSLFLSIQDATAEALMSQ
MLNQSLRPLVNVQVRSVSSKYPRPTPRHFKRRLFEAALKPELPPTVNMCIPPGLIKREHTGKSKEYSDVELALSNLVRDWMVREEFRVMAVCQFLPVPGRTLWFAKNQLRSKNIEFRSYGNKILKKIFDKTPMSSLNTVLVGNNAILLAKDISAIKSILQETDKLNWIEPLVMMADGRIVDMVDARELAKLSSLEDLRAHTVQLLGQQVAQVTISLDTVTRHLPSLLDSHISTNQEAKK
MLNRNRNVNKQNGHQKQNGAQKSELRGKNAPPYLERETCLGRNDIFVVEKMIAGGGFGQVYRARNTETQEEVAVKVERATTNDSQRMILESKVLDDMLGSKHFPNVYYIGPYHSYNFIVMQMLGKNIGDIRKMMPNKKISILSSVRIGIQIIEALSLLHSKGWLHRDLKPTNCCLGLDEKRKTVYLVDFGMSRKFRNDNGSLRESRTYCGFRGTTRYCSYRMHDRREQGPVDDLWCLYYSLGELIEGCLPWRDIESADEMAHVKKILKHEDIFHSMPSKFASFGRNLRRLRPANTPDYTKFQNILAYCVKFVDDNAEFEWDVMDY
MLNSKPVSYQVLKFILKHLDPSLRIQLCLVCPSIHTLEKSTPSYIHYLKITDNSVTVNRVTCQITVTDRKVDYQFDINQFPSISGTVELRNSRNNLTKTMKYLLDKLFKGRTVKVGQLAISCENPLRVPLAARINVNVLEVFDSRSLSAASSLIANSCLPLSLIKLPFKSLLKTNNNPITSIVNRKTKKWHFKAPTTAPHNLRRVLTFLQNRRVTTAHFERGHFCFSIVIEYFMGDSDIENGTYYTFDTTRGAVFVVMERSRKRYKAMLEDGSSRRSNQLTIKKNSTSKLVISKIQQGDAWILGFKIERRRLFPTFF
MLNVEPSFAEELRSSGVSLSATYLGSVPVVESINVMVSEMRVQVVSECIQHVAATVGVTAAREINPVVSRPTLHGSMKKPR
MLPERVLEILREMKRERIKGASWLAKKGAEAFLTLAEELDESLLEDAIMELREEVVKVNPSMASLYNLARFIPVTNRRDILKSRALEFLRRMEEAKRELASIGAQLIDDGDVIITHSFSSTVLEIIRTAKERKKRFKVILTESSPDYEGLHLARELEFSGIEFEVITDAQMGLFCREASIAIVGADMITKDGYVVNKAGTYLLALACHENAIPFYVAAETYKFHPTLKSGDVMLMERDLIRGNVRIRNVLFDVTPWKYVRGIITELGIVIPPRDIQLEHHHHHH
MLPKRNSGDNELYTNREKRKKMTSYIADSAVFIMGNCGVDSSLLITVPSVADELKSRDSMLRFDLAKEEGLRVEWPEPEMVKEVRKKAEQTRDSEELSKTDLEILAKALEHRETAVLLTDDYAVQNVAVQLGIQVKPIAQKKIKDVLIWQKQCTGCKKTFDKGDECPICGSPLKKKRKRKLKGKGYRESLEHHHHHH
MLQQVREQVAARLRLDAGRPWLMVHAGSGGSANNLSIEQYARLIIKLNQACPELQCILTAGPGEERIAEQLAAELLAHGGNGWIYRSDEGLPKFCQVMANAALFVAGSTGPLHIAAALDVPTIGFFPAHRSATPLRWRPLNSEGRHLAFSPPEDSDHPEDMSQLDPKTMAAAIARWAPPFWRTEHLEHHHHHH
MLRFPENVVICDGKRILWNGLGLPENLVFEMARTVLESNVPLKGKIFCFPAQTVLGKMAIFTDEKTQGRDVLVELLNHELLRMRLYSEEVENLVEVLFNDWRPGKRVFIVRSKNFETRLSLREKLSSFADVIYNAGEIDVGIAPAGTLLQINEEKVSFSDPERDIKEAVRKALLIDRYVNEPFSFYEKLPAYNFSLNIQIPELVKIFLRTGDIQKTSELTEKNVEVVFREILKFEKKTLLSPRIPVEAFLILKGGLD
MLRNLILITLLVASGHGQTPVIGGTCKLGTADVQIGGKQTQFFLKCETTADSAEGEGVWVVKSRAAAAPSSVPSVPAENTQPQQHPKARKPASPNICEQDNGARESEVCAVSATCLQAHNDFPSSYLQCDQTTLRWVRKSCQENFLFNFEQQTCIVPKRMSSLSRQQASGLVCTFSSCSNSNPCSVGTCNNGYCCSSGSNSGSAIIVGGGSSNCVGCQNAPQIITIPQNSCPGGGYSVGGCSSGYCATGYSCIQNQCCPSYNSAPRISVYTCPSGGNAVGACMSGRCASGYTCSNNVCCPQTTTTNPFVCPDGTQAAGGCVNGQCGTGYTCSNGLCCAGTSTTVKCLDGSDAVGACIPSCTGDGCGGVQVSYYCGSGYTCTTGNICCPINSCPNGGEVLGPTINGLCPTGYTVQGNLCCSATCTDGSTGLPSVNGVCIDGYSLTNGVCCPASVTCTDEISIGPCTGTGFNGGCPAGYACDSNQVNCCPVVRYTDESCQVGPAIDGLCPPGYVVVYIPNSPLITNGVNPGTCIDLQCTTGLCLTANQIGDCDTATDAGTCPTGYTCFTNAGICCSTTTFSRLRIGNSRQMAQKPNYGRPLHSYMPPPRPIGARCQLDGECVGQAEGLSMCHAGVCQCSPIAYTQGIACVRRKSFQMNDDPVIDAANDDKSSSSVSV
MLRSKKMVLVGRKAPDFTAAAVLGNGEIVDNFNFAEFTKGKKAVVFFYPLDFTFVCPSELIAFDNRYEDFLAKGVEVIGVSIDSQFSHNAWRNTAVENGGIGQVKYPLVADVKHEICKAYDVEHPEAGVAFRGSFLIDEEGMVRHQVVNDLPLGRNIDEMLRMVDALNFHQTHGEVCPAQWEAGKAGMEASPKGVAAFLSQYSADLK
